Assay results from patent US6887844 (dated 2005).

Experiments:
[1] = target: NCAM on cells (primary hippocampal neurones; NCAM-140 on transfected fibroblasts) (rat) (UniProt P13596); experiment: cell-based or functional assay
[2] = target: NCAM Ig2 domain, recombinant, produced in Pichia pastoris (rat) (UniProt P13596); experiment: NMR titration, 14 points, 15N-labelled domain-2 (1.0 mM) titrated with unlabelled domain-1, chemical shifts of 10 residues fitted
[3] = target: the molecule itself; experiment: gel filtration chromatography, self-association

Molecule	binding result [3]	also measured
NCAM Ig2 domain, recombinant, produced in Pichia pastoris (from UniProt P13596 117-208) (ligand)		concentration of maximal neuritogenic effect, primary hippocampal neurones on fibronectin [1]: 0.54 µM
NCAM Ig1 domain, recombinant, produced in Pichia pastoris (Ig1 PP) (from UniProt P13596 20-116) (receptor)		Kd [2]: 2.5 mM
NCAM (20-208) with three mutations in the domain-1 E30A, E35A, K37A (receptor, UniProt P13596 20-208, looked up, Species as for m28; also called first mutant) LQVDIVPSQGAISVGASAFFLCQVAGDAKDKDISWFSPNGEKLSPNQQRISVVWNDDDSSTLTIYNANIDDAGIYKCVVTAEDGTQSEATVNVKIFQKLMFKNAPTPQEFKEGEDAVIVCDVVSSLPPTIIWKHKGRDVILKKDVRFIVLSNNYLQIRGIKKTDEGTYRCEGRILARGEINFKDIQVIV	no binding	
NCAM (20-208) with three mutations in the domain-2 R192A, R196A, E198A (receptor, UniProt P13596 20-208, looked up, Species as for m28; also called second mutant; mutated double domain) LQVDIVPSQGEISVGESKFFLCQVAGDAKDKDISWFSPNGEKLSPNQQRISVVWNDDDSSTLTIYNANIDDAGIYKCVVTAEDGTQSEATVNVKIFQKLMFKNAPTPQEFKEGEDAVIVCDVVSSLPPTIIWKHKGRDVILKKDVRFIVLSNNYLQIRGIKKTDEGTYRCEGAILAAGAINFKDIQVIV	no binding	
NCAM (20-208) with three mutations in the domain-1 E30A, E35A, K37A and three mutations in the domain-2 R192A, R196A, E198A (receptor, UniProt P13596 20-208, looked up, Species as for m28; also called third mutant) LQVDIVPSQGAISVGASAFFLCQVAGDAKDKDISWFSPNGEKLSPNQQRISVVWNDDDSSTLTIYNANIDDAGIYKCVVTAEDGTQSEATVNVKIFQKLMFKNAPTPQEFKEGEDAVIVCDVVSSLPPTIIWKHKGRDVILKKDVRFIVLSNNYLQIRGIKKTDEGTYRCEGAILAAGAINFKDIQVIV	no binding	
